Results on three molecules are retold here after patent CN114106160A (ANYUAN MEDICINE SCIENCE AND TECH SHANGHAI LIMITED COMPANY, dated 2022).

Assay [1] concerns the target 刺突S-鼠Fc融合蛋白(S-mFc) (SARS-CoV-2; mouse, UniProt P0DTC2 14-1213). Kind of assay: flow cytometry, antibody blocks binding of S-mFc to 293T-ACE2 cells.
For assay [2], the target named is SARS-CoV-2 S1蛋白 (ACRO Biosystems) (SARS-CoV-2, UniProt P0DTC2 16-685). Kind of assay: BLI, biotinylated SARS-CoV-2 S1 on SA sensor, antibody as analyte, 1:1 model. A general note: Biolayer interferometry detects binding as a change in optical thickness at a sensor tip.
Assay [3] has as its target T1, 刺突S-鼠Fc融合蛋白(S-mFc) (SARS-CoV-2; mouse, UniProt P0DTC2 14-1213).
T1 construct: domain: S蛋白全长区段
Kind of assay: flow cytometry, antibody blocks binding of S-mFc to 293T-ACE2 cells. Background: In flow cytometry, cells or beads pass a laser one at a time.

Assay [4] addresses T2, SARS-CoV-2 S1蛋白 (ACRO Biosystems) (SARS-CoV-2, UniProt P0DTC2 16-685).
Assay [5] concerns the target T2, SARS-CoV-2 S1蛋白 (ACRO Biosystems). Put plainly: BLI, biotinylated SARS-CoV-2 S1 on SA sensor, antibody as analyte, 1:1 model.

Read-outs that look alike come from different tables or passages of the source.

B1: 鼠源抗体S1B-48-2 (antibody, V domains shown)
VH: EVQLQQSGPELEKPGASVKMSCKASGYTFTNYVMHWVKQKPGQGLEWIGYFNPYNDDAEYNEKFKGKATLTSDKSSSTAYMVLSSLTSEDSAVYYCACLRQETDYWGQGTTLTVSS
VL: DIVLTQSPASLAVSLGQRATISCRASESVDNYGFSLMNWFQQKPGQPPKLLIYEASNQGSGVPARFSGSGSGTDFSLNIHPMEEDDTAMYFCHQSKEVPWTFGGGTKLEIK
The IC50 is the midpoint of a concentration-inhibition curve. The low end stands for greater potency, the high end for weaker potency. A word on the Kd: it is the free concentration of one partner at which half of the binding sites on the other are occupied at equilibrium, for simple one-to-one binding. High values mean weaker binding, low ones tighter binding. What is called koff is a measure of how fast the partners let go of each other. High values mean a short-lived complex, low ones a long-lived complex. As a reminder, the kon is the rate constant with which the complex forms. The low end stands for slow association, the high end for fast association. For B1, the IC50 in assay [1] was found to be 0.0108 µg/mL. In assay [2], this molecule registered a Kd of 0.0156 nM, a koff of 4.27e-06 s⁻¹ and a kon of 273000 M⁻¹ s⁻¹.

B2: 鼠源抗体S1B-64-2 (antibody, V domains shown)
VH: EVQLQQSGPELEKPGASVKMSCKASGYTFTNYVMHWVKQKPGQGLEWIGYFNPYNDGTKYNEKFKGKATLTSDKSSSTAYMELSSLTSEDSAVYYCACLRQRADYWGQGTTLTVSS
VL: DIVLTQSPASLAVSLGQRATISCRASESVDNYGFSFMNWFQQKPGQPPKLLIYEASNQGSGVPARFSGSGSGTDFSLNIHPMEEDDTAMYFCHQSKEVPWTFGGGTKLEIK
Turning to B2, in assay [2], binding was put at a Kd of 0.091 nM, the koff was 4.43e-05 s⁻¹ and the kon was 487000 M⁻¹ s⁻¹.

B3: 人源化抗体hS1B-48-2 (antibody, V domains shown)
VH: EVQLVQSGAEVKKPGASVKVSCKASGYTFTNYVMHWVRQAPGKGLEWIGYFNPYNDDAEYNEKFKGKATLTSDKSTSTAYMKLSSLRSEDTAVYYCASLRQETDYWGQGTTLTVSS
VL: DIVLTQSPSSLAVSLGERATINCRASESVDNYGFSLMNWFQQKPGKPPKLLIYEASNQGSGVPARFSGSGSGTDFTLKISRLQAEDVAVYFCHQSKEVPWTFGGGTKLEIKR
By EC50 is commonly meant the concentration giving half of the maximal effect. A lower EC50 goes with higher potency in that assay. Molecule B3 displayed an IC50 in assay [3] of 5.82 ng/mL. Further, in assay [4], the EC50 stood at 0.0197 µg/mL. In assay [5], this molecule registered a Kd of 1.13 pM, a koff of 9.81e-07 s⁻¹ and a kon of 867000 M⁻¹ s⁻¹.
